The values that follow come from patent publication US20170073408A1 (Amgen, published 2017).

In one test the target is T1, A/B13-39.
T1 construct: also called Activin A 13/39 B
T1 activin A/B chimeric subunit: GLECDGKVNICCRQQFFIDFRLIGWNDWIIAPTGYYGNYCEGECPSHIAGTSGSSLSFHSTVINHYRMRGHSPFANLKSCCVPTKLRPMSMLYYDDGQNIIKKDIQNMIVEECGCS
Put plainly: Biacore blocking: 100 nM antibody + diluted conditioned medium (CM) of the ligand over ActRIB-Fc surface. A general note: In SPR one partner is held on a chip, and binding of the other changes the refractive index at the surface.

The target of a further test is T2, A/B82-107.
T2 activin A/B chimeric subunit: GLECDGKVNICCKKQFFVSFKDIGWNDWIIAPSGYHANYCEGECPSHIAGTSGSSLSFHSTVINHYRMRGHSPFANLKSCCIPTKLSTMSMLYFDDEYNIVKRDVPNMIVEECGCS
The test is described as above.

Test [1] concerns the target T3, recombinant human activin A (mature) (human, UniProt P08476 311-426).
T3 construct: also called r-HuActivin A; rhActivin A
T3 sequence: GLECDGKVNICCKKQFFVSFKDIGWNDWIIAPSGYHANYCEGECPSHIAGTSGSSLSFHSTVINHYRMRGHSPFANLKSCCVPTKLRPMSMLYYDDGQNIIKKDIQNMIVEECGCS
Put plainly: Biacore premix competition: 2 nM rhActivinA + 20 nM antibody over immobilized AKA1.

Test [2] has as its target T3, recombinant human activin A (mature). Put plainly: KinExA solution equilibrium, activin A-coated beads. How it is done: Solution-based equilibrium-binding assays using KinExA™ technology (Sapidyne Instruments, Inc.) were used to determine the dissociation equilibrium (KD) of activin A binding to antibody molecules. This solution-based assay is considered to be more sensitive than the BIAcore assay in some instances. Reacti-Gel™ 6× was pre-coated with about 50 μg/ml activin A overnight, and then blocked with BSA. 30 pM and 100 pM of antibody samples were incubated with various concentrations (0.5 pM to 5 nM) of activin A in sample buffer at room temperature for 8 hours before being run through the activin A-coated beads. The amount of the bead-bound antibody was quantified by fluorescent (Cy5) labeled goat anti-human-Fc antibody at 1 mg/ml in superblock. The binding signal was proportional to the concentration of free antibody at equilibrium with a given activin A concentration. KD was obtained from the nonlinear regression of the competition curves using a dual-curve one-site homogeneous binding model provided in the KinEx ATM software (Sapidyne Instruments, Inc.). […] A2 and A3 bound to activin A at ˜15 pM and ˜8 pM, respectively.
(In general: A kinetic exclusion assay measures how much of one partner remains free in solution.)

Another test concerns the target T4, activin B (UniProt P09529 293-407).
T4 construct: Bought (R & D Systems)
T4 sequence (looked up): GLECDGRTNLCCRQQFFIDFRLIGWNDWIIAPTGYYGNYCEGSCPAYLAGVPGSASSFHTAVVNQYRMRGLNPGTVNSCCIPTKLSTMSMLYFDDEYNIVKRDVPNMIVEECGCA
Put plainly: affinity analysis of Example 15 (antibody immobilized on a surface).

For test [3], the target named is T3, recombinant human activin A (mature). Nature of the test: affinity analysis of Example 15 (method of the KD not given).
A further test addresses T5, BMP4 (UniProt P12644 293-408).
T5 construct: Bought
T5 sequence (looked up): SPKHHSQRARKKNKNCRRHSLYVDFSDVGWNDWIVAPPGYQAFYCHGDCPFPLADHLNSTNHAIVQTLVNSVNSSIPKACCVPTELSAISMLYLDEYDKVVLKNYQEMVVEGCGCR
Nature of the test: BIAcore, antibody pre-incubated with ligand, ActRIIB/Fc on chip. How it is done:
(§1) These assays were performed using BlAcore® technology, to determine the selectivity of binding of antibodies A1, A2 and A3 to various activins and other TGF-β family members, including activin A, activin B, activin AB, inhibin A, GDF-8, GDF-11, TGF-β-1, TGF-β-3, and BMP4 (all from R & D Systems). […] Because BlAcore assays detect changes in the refractive index, the difference between the response detected with injection over the immobilized receptor surfaces compared with the response detected with injection over the control surface in the absence of any antibody represents the actual binding of the various ligands to the receptor. With pre-incubation of antibodies and activin and TGF-β molecules, a change (increase or decrease) in binding response indicates antibody binding to the TGFβ family of molecules. The antibodies all bound to activin A but not to activin B, GDF-8, GDF-11, TGF-β-1, TGF-β-3, and BMP4, thus indicating specificity for activin A.

The target of the next test is T6, TGF-β-3 (UniProt P10600 301-412).
T6 construct: Bought
T6 sequence (looked up): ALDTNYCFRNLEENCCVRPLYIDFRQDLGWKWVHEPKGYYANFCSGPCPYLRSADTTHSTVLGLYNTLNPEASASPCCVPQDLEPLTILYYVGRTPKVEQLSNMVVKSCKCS
The description is as above. On the procedure:
as §1

In the next test the target is T7, TGF-β-1 (UniProt P01137 279-390).
T7 construct: Bought
T7 sequence (P01137 279-390 limits assumed): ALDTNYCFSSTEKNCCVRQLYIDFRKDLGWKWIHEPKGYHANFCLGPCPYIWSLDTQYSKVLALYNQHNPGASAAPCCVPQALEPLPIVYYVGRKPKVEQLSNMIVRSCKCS
The test is described as above. On the procedure: as §1

For another test, the target named is T8, GDF-8 (UniProt O14793 267-375).
T8 construct: Bought
T8 sequence (looked up): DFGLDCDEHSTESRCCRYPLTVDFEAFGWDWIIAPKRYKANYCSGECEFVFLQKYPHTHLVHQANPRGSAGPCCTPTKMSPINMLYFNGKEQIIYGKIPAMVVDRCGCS
The description is as above. On the procedure: as §1

Another test deals with T9, GDF-11 (UniProt O95390 299-407).
T9 construct: Bought
T9 sequence (looked up): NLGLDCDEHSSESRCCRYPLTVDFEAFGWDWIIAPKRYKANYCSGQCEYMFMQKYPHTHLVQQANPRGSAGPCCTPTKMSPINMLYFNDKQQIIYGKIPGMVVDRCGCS
Described as above. How it is done:
as §1

Test [4] addresses T3, recombinant human activin A (mature). Put plainly: cell-based or functional assay.

B1: A8 (antibody, V domains shown)
VH: QVQLQESGPGLVKPSETLSLTCTVSGGSINSFYWSWIRQPPGKGLEWIGYIYYSGSTNYNPSLKRRVTISVDTSKTQFSLKLSSVTAADTAVYYCARDSIAAPFDYWGQGTLVTVSS
VL: DIVMTQSPDSLAVSLGERATITCKSSQSILYSSNNKKYLVWYQQKPGQPPKLIIYWTSMRESGVPDRFSGSGSGTDFTLTISSLQAEDVAVYYCQQYYSTPWTFGQGTKVEIK
notes: also called antibody A8; L8H8
In the case of B1, the binding result (with A/B13-39; with A/B82-107; in test [1]) was “binds” each time.

B2: A5 (antibody, V domains shown)
VH: QVQLQESGPGLVKPSETLSLTCTVSGGSINSFYWSWIRQPPGKGLEWIGYIYYSGSTNYNPSLKSRVTISVDTSKTQFSLKLSSVTAADTAVYYCARDSIAAPFDYWGQGTLVTVSS
VL: DIVMTQSPDSLAVSLGERATITCKSSQSILYSSNNKKYLVWYQQKPGQPPKLIIYWTSMRESGVPDRFSGSGSGTDFTLTINSLQAEDVAVYYCQQYYSTPWTFGQGTKVEIK
notes: also called antibody A5; L5H5
Consider B2, for which the binding result (with A/B13-39; with A/B82-107; in test [1]) was “binds” in each case.

B3: anti-activin A monoclonal antibody A3 (antibody, human IgG2, kappa, V domains shown)
VH: EVQLVESGGGLVQPGGSLRLSCAASGFTFSSYWMSWVRQAPGKGLECVANIKQDGSEEYYVDSVKGRFTISRDNAKNSLYLQMNSLRAEDTAVYYCARGSSSWYYYNYGMDVWGQGTTVTVSS
VL: DIQMTQSPSSLSASVGDRVTITCRASQGIRNDLGWYQQKPGKAPKRLIYAASSLQSGVPSRFSGSGSGTEFTLTISSLQPEDFATYYCRQQNTYPLTFGGGTKVEIKR
notes: Fully human antibody from XenoMouse hybridoma; also called L3H3
A word on the Kd: it is a measure of binding affinity in units of concentration. With B3, the Kd was approximately 8 pM in [2] and approximately 11 pM in test [3]. The binding result is “no binding” with activin B; “binds” with A/B13-39; “no binding (tested: 100 nM)” with A/B82-107; “no binding” in the test with BMP4; “no binding” in the test with TGF-β-3; “no binding” with TGF-β-1. Also, the binding result with GDF-8 and in the test with GDF-11 was “no binding” throughout. Also, the “Cell IC50 (nM); luciferase activity of C2C12/pMARE reporter cells, activin A fixed at 4 nM” value in test [4] was less than 3 nM.

B4: A6 (antibody, V domains shown)
VH: QVQLQQWGAGLLKPSETLSLTCAVYGGSFSAYYWSWIRQPPGKGLEWIGEINHSGGTNYNPSLKSRVTISVDTSKNQFSLKLSSVTAADTAVYYCARVQWLELAYFDYWGQGTLVTVSS
VL: DIQMTQSPSSLSASVGDRVTITCRASQSISNYLNWYQQRPGKAPKLLIYATSSLQSGVPSRFSGSGSGTDFTLTISSLQPEDFVSYYCQQSYSISPTFGGGTKVENK
notes: also called antibody A6; L6H6
Regarding B4, the binding result (with A/B13-39; in the test with A/B82-107; in test [1]) was “binds” throughout.

B5: A13 (antibody, V domains shown)
VH: QVQLVQSGAEVKKPGASVKVSCKASGYTFTSYGISWVRQAPGQGLERMGWISAYNGNTNYAQKFQGRVTMTTDTSTTTAYMELRSLRSDDTAVYYCARDQDYYDSSGWGHWGQGTLVTVSS
VL: SYELTQPPSVSVSPGQTASITCSGDKLGDKYVCWYQQKPGQSPELVIYLDNKRPSGIPERFSGSNSGNTATLTISGTQAMDEADYYCQAWDSSTVFGGGTKLTVL
notes: also called antibody A13; L13H13
Take B5: the binding result (with A/B13-39; in the test with A/B82-107; in test [1]) was “binds” each time.

B6: A14 (antibody, V domains shown)
VH: QVQLVQSGAEVKKPGASVKVSCKTSGYTFTSYGISWVRQAPGQGLEWMGWISPYNGNTNYAQKFQGRVTMTTDKSTSTAYMELRSLRSDDTAVYYCARDQDYYDSSGWDPWGQGTLVTVSS
VL: SYELTQPPSVSVSPGQTASITCSGDKLGDKYAFWYQQKPGQSPVLVFYHDTKRPSGIPERFSGSNSGNTATLTISGTQAMDEADYHCQAWDSSTVFGGGTKLTVL
notes: also called antibody A14; L14H14
On to B6, for which the binding result is listed as “no binding (tested: 100 nM)” with A/B13-39, “binds” with A/B82-107 and “binds” in test [1].

B7: A7 (antibody, V domains shown)
VH: QVQLVDSGGGVVQPGRSLRLSCAASGFTFISYGMHWVRQAPGKGLEWVAVIWYDGSTEYYADSVKGRFTISRDNSKNTLYLQMNSLRAEDTAVYYCARERQWLYHYGMDVWGQGTTVTVSS
VL: DIQMTQSPSSLSASVGDRVTITCRAGQGIRNDLVWYQQKPGKAPKRLIYAASSLQSGVPSRFSGSGSGTEFTLTISSLQPEDFATYYCLQHNTYPFTFGPGTKVDIK
notes: also called antibody A7; L7H7
With B7, the binding result with A/B13-39 is given as “binds”; with A/B82-107 it was “no binding (tested: 100 nM)”; in test [1], “binds”.

B8: A9 (antibody, V domains shown)
VH: QVQLVESGGGVVQPGRSLRLSCAASGFTFSSYGMHWVRQAPGKGLEWVAVIWYDGSNKYHADSVKGRFTISRDNSKNTLYLQVNSLRAEDTAVYYCVRSRNWNYDNYYYGLDVWGQGTTVTVSS
VL: DIQMTQSPSSLSASVGDRVTITCRASQGIRNNLGWYQQKPGKAPKRLIYAASSLQSGVPSRFSGSGSGTEFTLTISSLQPEDFTTYYCLQHNSYPWTFGQGTKVEIK
notes: also called antibody A9; L9H9
In the case of B8, the figures for the binding result with A/B13-39 and in the test with A/B82-107 were “binds” and “no binding (tested: 100 nM)”, respectively.
